The source of these data is patent US10570379B2, “Polypeptides for carbon-carbon bond formation and uses thereof” (INVISTA North America S.à.r.l., priority 2015, dated 2020).

The nature of data set [1]: Screen for dual transferase/ketothiolase activity with acetyl-CoA and sodium acrylate, LC-MS detection. Format: biochemical. Particulars: for ketothiol-product: 3-oxopent-4-enoyl-CoA via thiolase activity; for thiol-product: propenoyl-CoA via transferase activity. The procedure: (§1) Acetyl-CoA was used at a final concentration of 1.5 mM and 30 mM of the substrate being studied (e.g. carboxylic acid salts, such as sodium acrylate) or 1.5 mM of propionyl-CoA in 50 mM Hepes buffer (pH 7.5). The reaction was started by addition of 0.5 mg/mL of YdiF pure protein or mutants to a final volume of 250 μL and incubated for 1 to 10 hours at 30° C.
Two controls were made from similar mixture except that the enzymes were inactivated by heating-up at 95° C. for 20 min or they were replaced by Buffer C.
(§2) All samples were prepared in triplicate and spun down at 15000 g for 20 min at 4° C. Detection of the thiol product (e.g. acryloyl-CoA) synthesized from CoA-transferase activity and the keto-thiol product (e.g. 3-oxopent-4-enoyl-CoA) due to putative thiolase activity of YdiF (or homologues) was carried out by Liquid Chromatography coupled to a qTof-Mass spectrometry (in positive mode), using a C18 column (Zorbax Eclipse C18, 2.1×50 mm, 1.8μ, Agilent, code product: 959757-902) and a gradient of 10 mM ammonium acetate and acetonitrile as mobile phase.
YdiF from Clostridium propionicum belongs to the enzymatic class EC2.8.3.8. Other members of this enzyme class with similar structural features to YdiF, as well as proteins with a CoA-transferase activity from close-by enzymatic classes, were screened for dual transferase/ketothiolase activity as described in Example 2. Acetyl-CoA and sodium acrylate were provided as substrates. LC-MS was used to detect the thiol-product (propenoyl-CoA) synthesized via the transferase activity and the ketothiol-product (3-oxopent-4-enoyl-CoA) synthesized via the thiolase activity, as described in Example 2.

Data set [2] can be described thus: Substrate specificity, 4-Hydroxybutyrate with acetyl-CoA, LC-MS. Format: biochemical. Particulars: substrate 4-Hydroxybutyrate + acetyl-CoA. The procedure:
as §1, §2
To study the substrate specificity of YdiF, several commercially available substrates were provided to YdiF (and homologues) in combination with acetyl-CoA, as described in Example 2. LC-MS was used to detect the thiol-product synthesized via the transferase activity and the ketothiol-product synthesized via the thiolase activity.
4-Hydroxybutyrate was used as a substrate with acetyl-CoA for protein 244 and the corresponding products from the transferase and ketothiolase activities of protein 244 were detected.

The nature of data set [3]: Solubility of the expressed protein (Table 3). The settings on record: protein expressed in E. coli.
Experimental: From a fresh LB plate containing the desired clone transformant, one colony (or small scratch) was picked to inoculate 25 mL of LB supplemented with the relevant antibiotic and the pre-culture was incubated overnight at 37° C., 230 rpm. The following morning, the TB auto-induced medium (Merck/Code product: 71491-5) was prepared by mixing 60 g TB/L supplemented with 10 mL Glycerol/L of TB and microwaved during 3+2 minutes at full power. The TB was cooled down before use and splitting it in sterile flasks. Then, the pre-culture incubated overnight in LB was centrifuged and the supernatant discarded. The obtained pellet was resuspended with 5 mL of freshly prepared TB medium and used to inoculate 500 mL of TB dispensed in sterile flasks and supplemented with the appropriate antibiotic. The inoculated medium was incubated at 28° C. for at least 20 h, 230 rpm.
The culture was centrifuged at least at 3000 g/20 min/4° C. and the pellet used immediately or stored at −80′C.
The pellets (fresh or thawed) were resuspended in 10 to 20 mL of Buffer A (50 mM Hepes+150 mM NaCl+40 mM Imidazole+5% Glycerol−pH 7.5). The resuspended cells were then sonicated in ice for, 5 min at 37% Amplitude with 5″ ON and 15″ OFF sonication pulse. The sonicated cells were centrifuged for at least 20 min at 15500 g and 4° C. The supernatant containing the soluble fraction of proteins was recovered, filtered using 0.45 or 0.2 um filters, and used for His-trap protein purification.

B1: Bdigene 0244: 4-Hydroxybutyrate-CoA transferase from Clostridium aminobutyricum, Uniprot Q9RM86, SEQ ID NO: 19 (protein, listed as Clostridium aminobutyricum)
chain: MDWKKIYEDRTCTADEAVKSIKSGDRVLFAHCVAEPPVLVEAMVANAAAYKNVTVSHMVTLGKGEYSKPEYKENFTFEGWFTSPSTRGSIAEGHGQFVPVFFHEVPSLIRKDIFHVDVFMVMVSPPDHNGFCCVGVSSDYTMQAIKSAKIVLAEVNDQVPVVYGDTFVHVSEIDKFVETSHPLPEIGLPKIGEVEAAIGKHCASLIEDGSTLQLGIGAIPDAVLSQLKDKKHLGIHSEMISDGVVDLYEAGVIDCSQKSIDKGKMAITFLMGTKRLYDFAANNPKVELKPVDYINHPSVVAQCSKMVCINACLQVDFMGQIVSDSIGTKQFSGVGGQVDFVRGASMSIDGKGKAIIAMPSVAKKKDGSMISKIVPFIDHGAAVTTSRNDADYVVTEYGIAEMKGKSLQDRARALINIAHPDFKDELKAEFEKRFNAAF
In the case of B1, the ketothiol-product entry in data set [1] is on record as “✓”; in data set [2] (listed as Protein 244), “✓”; in data set [2] (listed as protein 244), “detected”. In addition, the values for the thiol-product result in data set [1], in data set [2] (listed as Protein 244) and in data set [2] (listed as protein 244) were “✓”, “✓” and “detected”, respectively. Also, the Solubility result in data set [3] is “✓”.

B2: Bdigene 0344: Succinyl-CoA: acetate CoA-transferase from Acetobacter aceti, Uniprot B3EY95 (protein, UniProt B3EY95 1-505, looked up)
Succinyl-CoA:acetate …: MTERIRNVALRSKVCPAETASELIKHGDVVGTSGFTGAGYPKEVPKALAQRMEAAHDRGEKYQISLITGASTGPQLDGELAKANGVYFRSPFNTDATMRNRINAGETEYFDNHLGQVAGRAVQGNYGKFNIALVEATAITEDGGIVPTSSVGNSQTFLNLAEKVIIEVNEWQNPMLEGIHDIWDGNVSGVPTRDIVPIVRADQRVGGPVLRVNPDKIAAIVRTNDRDRNAPFAAPDETAKAIAGYLLDFFGHEVKQNRLPPSLLPLQSGVGNVANAVLEGLKEGPFENLVGYSEVIQDGMLAMLDSGRMRIASASSFSLSPEAAEEINNRMDFFRSKIILRQQDVSNSPGIIRRLGCIAMNGMIEADIYGNVNSTRVMGSKMMNGIGGSGDFARSSYLSIFLSPSTAKGGKISAIVPMAAHVDHIMQDAQIFVTEQGLADLRGLSPVQRAREIISKCAHPDYRPMLQDYFDRALKNSFGKHTPHLLTEALSWHQRFIDTGTMLPS
Regarding B2, in data set [1], the ketothiol-product entry is listed as “✓” and the thiol-product result is given as “✓”. For the same molecule, the Solubility result in data set [3] is reported as “✓”.

B3: Bdigene 273: Acetate CoA-transferase YdiF from Firmicutes bacterium CAG, Uniprot R5ADR5, SEQ ID NO: 6 (protein)
chain: MARQVKVITAAEAAALIKNGDTVTTSGFVASAIPEALDRAVEERFLATGEPRDITYVYCGSQGNKDGRGAEHFAHEGLLKRYIAGHWATVPALQKMALENKMEAYNVSQGALCHLFRDIAAHRPGCFTKVGLGTFIDPRNGGGKVNDVTKEDIIELVNIKGQDYLFYPAFPINVALIRGTYADESGNISFEKEVSPLEGTSVCQAVKNSGGIVVVQVEKLVKAGTLDPRLVKVPGIYVDYVVVADPKDHQQTLDCDYDPALSGEMRNPDVAPEPLPLSAKKIIGRRGAVELEKDVAVNLGVGAPEYVASVANEEGIGDFMTLTVEGGAVGGVPAGGIRFGSAYNADALLDQGYQFDFYDGGGLDLCYLGLAECDPHGSINVSRFGPRIAGCGGFINITQCTPKVFFCGTFTAGGLKVKVEDGKVVIAQEGKNKKFVKSVEQVTFNGDIANKNGQHVMYITERCVFVLKEDGLHLTEIAPGIDLQTQILDQMEFEPIIDRNADGSITLMDAKLFADGLMGLKEMKEGK
On to B3, for which, in data set [1], the ketothiol-product result is on record as “✓” and the thiol-product entry is on record as “✓”. Besides, the Solubility entry in data set [3] is on record as “✓”.

B4: Bdigene 0343: E-cinnamoyl-CoA: R-phenyilactate CoA transferase from Clostridium sporogenes, Uniprot Q93AM1 (protein, UniProt Q93AM1 1-412, looked up)
Cinnamoyl-CoA:phenyllactate …: MENNTNMFSGVKVIELANFIAAPAAGRFFADGGAEVIKIESPAGDPLRYTAPSEGRPLSQEENTTYDLENANKKAIVLNLKSEKGKKILHEMLAEADILLTNWRTKALVKQGLDYETLKEKYPKLVFAQITGYGEKGPDKDLPGFDYTAFFARGGVSGTLYEKGTVPPNVVPGLGDHQAGMFLAAGMAGALYKAKTTGQGDKVTVSLMHSAMYGLGIMIQAAQYKDHGLVYPINRNETPNPFIVSYKSKDDYFVQVCMPPYDVFYDRFMTALGREDLVGDERYNKIENLKDGRAKEVYSIIEQQMVTKTKDEWDNIFRDADIPFAIAQTWEDLLEDEQAWANDYLYKMKYPTGNERALVRLPVFFKEAGLPEYNQSPQIAENTVEVLKEMGYTEQEIEELEKDKDIMVRKEK
Take B4: the Solubility result in data set [3] was “✓”.

B5: Bdigene 272: Acetate CoA-transferase YdiF from Peptostreptococcaceae bacterium oral taxon, Uniprot U2L5C9, SEQ ID NO: 5 (protein)
chain: MAKFVTLEEAVSVVKNGDTVATTGFVQVANPEALEWALGKRFEETKEPRDLTLFYCAGQGDGDCRAVNHFAKEGMLKRVVAGHFNMAPLLRQFISDNKCEAYNVPQGVLCNMVRDIAAKKPGVISHVGLNTFADPRIEGCKINLVTKEDIVELMMINGEEKLFYKTFPLTIAFIKGTYADERGNVTLENEGIPSEATSIAQSVHNCGGKVIVQVEKVVAAGTLDPKLVKVPGIYVDYIVQVDDPSMRQQCYGVDYEPELAGNVYIPLSDIPLKTPLNERKIIARRGAFEIRKGNVGNLGIGVPEVVSEVVSEEGITDWLTLTVEVGPVGGSPQGKNRFGTAINAEAILDQPYQFDFYDGGGLDIAYLGLAQADAKGNLNVSKFGDRVAGCGGFIDISQNSKAVVFCGSFTAGGLKVEVNDGKLNIVQEGKVKKFVNKVQQITFSGEYARKTGQRVFYVTERAVFQMKPEGLTLIEIAPGVDLEKDVLNQMEFKPLIAKDLKLMDERIFRPGPMGIKNDN
For the molecule B5, in data set [1], the ketothiol-product entry is “✓” and the thiol-product result is “✓”. The Solubility result in data set [3] is given as “✓”.

B6: Bdigene 274: Acetate CoA-transferase YdiF from Megasphaera elsdenii DSM 20460, Uniprot G0VND6, SEQ ID NO: 7 (protein, listed as Megasphaera elsdenii)
chain: MRKVEIITAEQAAQLVKDNDTITSIGFVSSAHPEALTKALEKRFLDTNTPQNLTYIYAGSQGKRDGRAAEHLAHTGLLKRAIIGHWQTVPAIGKLAVENKIEAYNFSQGTLVHWFRALAGHKLGVFTDIGLETFLDPRQLGGKLNDVTKEDLVKLIEVDGHEQLFYPTFPVNVAFLRGTYADESGNITMDEEIGPFESTSVAQAVHNCGGKVVVQVKDVVAHGSLDPRMVKIPGIYVDYVVVAAPEDHQQTYDCEYDPSLSGEHRAPEGATDAALPMSAKKIIGRRGALELTENAVVNLGVGAPEYVASVAGEEGIADTITLTVEGGAIGGVPQGGARFGSSRNADAIIDHTYQFDFYDGGGLDIAYLGLAQCDGSGNINVSKFGTNVAGCGGFPNISQQTPNVYFCGTFTAGGLKIAVEDGKVKILQEGKAKKFIKAVDQITFNGSYAARNGKHVLYITERCVFELTKEGLKLIEVAPGIDIEKDILAHMDFKPIIDNPKLMDARLFQDGPMGLKK
B6: in data set [1], the ketothiol-product result is given as “✓” and the thiol-product entry was “✓”. For the same molecule, the Solubility entry in data set [3] is on record as “✓”.

B7: Bdigene 0345: Succinyl-CoA--D-citramalate CoA-transferase from Chloroflexus aurantiacus, Uniprot A9WGE3 (protein, UniProt A9WGE3 1-402, looked up)
Succinyl-CoA--D-citramalate …: MSSQRPPRPLDDVRVLELGAFLAGPFCGQLLADFGAEVIKVEPPGKGDPMREWGRHRYKGRTLWWPVLARNKKSITIDLRTPEGQALVKRLVPHVDMVLENFRPGTLEEWGLGWEELHALNPGLIMIRVSGFGQTGPYRDKAGFGSIGEAMGGIRAITGFPDRPPTRIGISIGDSLAATFAALGALVALHQRQRSGQGQVVDIGIYEGVLALMESMIPEYQLTGHIRERTGNILPNVAPSNIYPTADGSWFVIGANADTIFTRLAQAMGQPELATDPRFATHQARGEHQAELDDLIAAWTLNYTADQLQVMMDEYGVPAGRIYTAKEMLSDPHFIARQSIIGVHDPDLGEIKMQNVVPRLSATPGGVDWTGPALGQHNREIFTDLLGLTEDDLAMLQAKRVI
As for B7, in data set [1], the ketothiol-product result was “✓” and the thiol-product entry is “✓”. Besides, in data set [3], the Solubility entry is “✓”.
